Measurements from CN115368447A (HEFEI TIANGANG IMMUNOLOGY PHARMACEUTICAL CO LTD, dated 2022).

Columns and labels:
[1] = target: T1, Nectin-4蛋白 (SEQ ID NO:29), expressed on CHO-K1-Nectin-4 cells and A375-Nectin-4 cells (Homo sapiens (Human), UniProt Q96NY8 32-510); test: flow cytometry on CHO-K1-Nectin-4 cells, Alexa-647 anti-human Fc
T1 construct: expressed by lentiviral transduction; also called CHO-K1-Nectin-4细胞; A375-Nectin-4细胞
T1 sequence: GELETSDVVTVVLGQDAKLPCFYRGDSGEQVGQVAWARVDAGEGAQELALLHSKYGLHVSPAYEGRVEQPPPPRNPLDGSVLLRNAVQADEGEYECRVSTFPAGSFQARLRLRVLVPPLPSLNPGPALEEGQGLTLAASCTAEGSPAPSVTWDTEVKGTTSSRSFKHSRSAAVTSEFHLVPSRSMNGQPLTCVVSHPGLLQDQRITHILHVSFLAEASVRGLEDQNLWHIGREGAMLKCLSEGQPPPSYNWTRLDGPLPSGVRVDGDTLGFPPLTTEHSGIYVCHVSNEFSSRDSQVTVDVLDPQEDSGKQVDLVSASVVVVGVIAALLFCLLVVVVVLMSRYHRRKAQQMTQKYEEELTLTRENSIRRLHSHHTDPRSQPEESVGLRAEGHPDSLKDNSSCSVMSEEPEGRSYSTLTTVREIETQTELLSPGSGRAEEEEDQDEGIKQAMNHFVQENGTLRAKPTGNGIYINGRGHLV

[2] = target: T2, 4-1BB-strep tagII蛋白 (Homo sapiens (Human), UniProt Q07011 24-186); test: ELISA, 4-1BB-strep tagII coated at 2 ug/mL, HRP anti-human IgG, OD450
T2 construct: Soluble 4-1BB with C-terminal strep tag II, made in house; Coated on the ELISA plate at 2 ug/mL; also called 4-1BB蛋白

[3] = target: T3, 4-1BB蛋白 (SEQ ID NO:27), expressed on CHO-K1-4-1BB cells and Jurkat-NFAT-lucia-4-1BB cells (Homo sapiens (Human), UniProt Q07011 24-255); test: flow cytometry on CHO-K1-4-1BB cells, Alexa-647 anti-human Fc
T3 construct: expressed by lentiviral transduction; also called CHO-K1-4-1BB细胞; Jurkat-NFAT-lucia-4-1BB细胞
T3 sequence (Q07011 24-255 limits assumed): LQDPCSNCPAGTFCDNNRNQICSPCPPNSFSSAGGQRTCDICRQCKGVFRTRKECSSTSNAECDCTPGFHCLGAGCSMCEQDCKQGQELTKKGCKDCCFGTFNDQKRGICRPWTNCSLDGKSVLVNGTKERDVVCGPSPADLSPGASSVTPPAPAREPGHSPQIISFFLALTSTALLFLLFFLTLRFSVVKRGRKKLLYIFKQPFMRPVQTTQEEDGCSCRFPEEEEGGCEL

Measured: binding result

B1: 抗体4-1BB×Nectin-4 (bispecific antibody, human IgG1, kappa, L234A L235A)
scFv: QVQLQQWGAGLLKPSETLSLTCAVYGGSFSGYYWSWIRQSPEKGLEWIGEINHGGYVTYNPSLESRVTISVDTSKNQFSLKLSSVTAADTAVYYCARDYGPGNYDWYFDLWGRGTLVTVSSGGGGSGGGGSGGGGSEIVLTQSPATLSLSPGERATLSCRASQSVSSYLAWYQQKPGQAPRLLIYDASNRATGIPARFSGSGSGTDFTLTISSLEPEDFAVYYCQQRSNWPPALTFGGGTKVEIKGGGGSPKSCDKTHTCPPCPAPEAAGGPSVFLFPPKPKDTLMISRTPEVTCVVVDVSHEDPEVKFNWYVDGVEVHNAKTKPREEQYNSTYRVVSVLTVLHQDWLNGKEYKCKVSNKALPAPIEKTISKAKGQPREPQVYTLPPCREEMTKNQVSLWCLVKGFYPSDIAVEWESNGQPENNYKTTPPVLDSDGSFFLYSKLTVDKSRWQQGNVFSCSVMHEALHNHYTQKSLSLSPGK
heavy: EVQLVESGGGLVQPGGSLRLSCAASGFTFSSYNMNWVRQAPGKGLEWVSYISSSSSTIYYADSVKGRFTISRDNAKNSLSLQMNSLRDEDTAVYYCARAYYYGMDVWGQGTTVTVSSASTKGPSVFPLAPSSKSTSGGTAALGCLVKDYFPEPVTVSWNSGALTSGVHTFPAVLQSSGLYSLSSVVTVPSSSLGTQTYICNVNHKPSNTKVDKKVEPKSCDKTHTCPPCPAPEAAGGPSVFLFPPKPKDTLMISRTPEVTCVVVDVSHEDPEVKFNWYVDGVEVHNAKTKPREEQYNSTYRVVSVLTVLHQDWLNGKEYKCKVSNKALPAPIEKTISKAKGQPREPQVCTLPPSREEMTKNQVSLSCAVKGFYPSDIAVEWESNGQPENNYKTTPPVLDSDGSFFLVSKLTVDKSRWQQGNVFSCSVMHEALHNHYTQKSLSLSPGK
light: DIQMTQSPSSVSASVGDRVTITCRASQGISGWLAWYQQKPGKAPKFLIYAASTLQSGVPSRFSGSGSGTDFTLTISSLQPEDFATYYCQQANSFPPTFGGGTKVEIKRTVAAPSVFIFPPSDEQLKSGTASVVCLLNNFYPREAKVQWKVDNALQSGNSQESVTEQDSKDSTYSLSSTLTLSKADYEKHKVYACEVTHQGLSSPVTKSFNRGEC
notes: Three chains: anti-4-1BB scFv-Fc (knob); human IgG1 Fc with L234A/L235A already contained in the entries; Produced in ExpiCHO, Protein A purified; also called 4-1BB×Nectin-4抗体; 4-1BB×Nectin-4双特异抗体
binds: [1] | [2] | [3]
